Results from patent US20190153061A1.
Blank lines part the entries; values can stand above or below the binder they belong to.

Target: B-cell maturation antigen (BCMA) expressed on cells (human), Q02223
Test: cell-based or functional assay

Sequence of B-cell maturation antigen (BCMA) expressed on cells (human), Q02223 (Q02223 whole entry): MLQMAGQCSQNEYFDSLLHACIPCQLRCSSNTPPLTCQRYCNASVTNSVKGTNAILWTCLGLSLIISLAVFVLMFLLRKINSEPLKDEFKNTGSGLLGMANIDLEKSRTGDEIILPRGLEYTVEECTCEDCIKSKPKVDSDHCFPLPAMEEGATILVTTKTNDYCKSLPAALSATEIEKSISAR

JNL binding assay, ratio to K562; K562-BCMA: 4.6
JNL binding assay, ratio to K562; NCI-H929: 4.55
JNL binding assay, ratio to K562; RPMI 8226: 5.06
Proliferation, CD3 ratio to no target; K562-BCMA: 1.59
Proliferation, CD3 ratio to no target; KMS11-luc: 1.38
Proliferation, CD3 ratio to no target; NCI-H929: 4.97
Proliferation, CD3 ratio to no target; RPMI 8226: 2.96
Proliferation, CD4 ratio to no target; K562-BCMA: 1.57
Proliferation, CD4 ratio to no target; KMS11-luc: 1.24
Proliferation, CD4 ratio to no target; NCI-H929: 5.57
Proliferation, CD4 ratio to no target; RPMI 8226: 2.43
Proliferation, CD8 ratio to no target; K562-BCMA: 1.61
Proliferation, CD8 ratio to no target; KMS11-luc: 1.56
Proliferation, CD8 ratio to no target; NCI-H929: 4.14
Proliferation, CD8 ratio to no target; RPMI 8226: 3.58
B1: BCMA-1 CAR (139100) (protein)
chain: QVQLVQSGAEVRKTGASVKVSCKASGYIFDNFGINWVRQAPGQGLEWMGWINPKNNNTNYAQKFQGRVTITADESTNTAYMEVSSLRSEDTAVYYCARGPYYYQSYMDVWGQGTMVTVSSASGGGGSGGRASGGGGSDIVMTQTPLSLPVTPGEPASISCRSSQSLLHSNGYNYLNWYLQKPGQSPQLLIYLGSKRASGVPDRFSGSGSGTDFTLHITRVGAEDVGVYYCMQALQTPYTFGQGTKLEIKTTTPAPRPPTPAPTIASQPLSLRPEACRPAAGGAVHTRGLDFACDIYIWAPLAGTCGVLLLSLVITLYCKRGRKKLLYIFKQPFMRPVQTTQEEDGCSCRFPEEEEGGCELRVKFSRSADAPAYKQGQNQLYNELNLGRREEYDVLDKRRGRDPEMGGKPRRKNPQEGLYNELQKDKMAEAYSEIGMKGERRRGKGHDGLYQGLSTATKDTYDALHMQALPPR
Cell killing EC50; KMS11-luc: 0.68 not printed

JNL binding assay, ratio to K562; K562-BCMA: 2.55
JNL binding assay, ratio to K562; NCI-H929: 2.36
JNL binding assay, ratio to K562; RPMI 8226: 2.77
Proliferation, CD3 ratio to no target; K562-BCMA: 1.72
Proliferation, CD3 ratio to no target; KMS11-luc: 1.71
Proliferation, CD3 ratio to no target; NCI-H929: 1.8
Proliferation, CD3 ratio to no target; RPMI 8226: 1.62
Proliferation, CD4 ratio to no target; K562-BCMA: 2.17
Proliferation, CD4 ratio to no target; KMS11-luc: 1.96
Proliferation, CD4 ratio to no target; NCI-H929: 2.23
Proliferation, CD4 ratio to no target; RPMI 8226: 1.91
Proliferation, CD8 ratio to no target; K562-BCMA: 1.08
Proliferation, CD8 ratio to no target; KMS11-luc: 1.35
Proliferation, CD8 ratio to no target; NCI-H929: 1.18
Proliferation, CD8 ratio to no target; RPMI 8226: 1.19
B2: BCMA-7 CAR (139106) (protein)
chain: EVQLVETGGGLVQPGGSLRLSCAVSGFALSNHGMSWVRRAPGKGLEWVSGIVYSGSTYYAASVKGRFTISRDNSRNTLYLQMNSLRPEDTAIYYCSAHGGESDVWGQGTTVTVSSASGGGGSGGRASGGGGSEIVMTQSPATLSVSPGERATLSCRASQSVSSKLAWYQQKPGQAPRLLMYGASIRATGIPDRFSGSGSGTEFTLTISSLEPEDFAVYYCQQYGSSSWTFGQGTKVEIKTTTPAPRPPTPAPTIASQPLSLRPEACRPAAGGAVHTRGLDFACDIYIWAPLAGTCGVLLLSLVITLYCKRGRKKLLYIFKQPFMRPVQTTQEEDGCSCRFPEEEEGGCELRVKFSRSADAPAYKQGQNQLYNELNLGRREEYDVLDKRRGRDPEMGGKPRRKNPQEGLYNELQKDKMAEAYSEIGMKGERRRGKGHDGLYQGLSTATKDTYDALHMQALPPR
Cell killing EC50; KMS11-luc: 0.15 not printed

JNL binding assay, ratio to K562; K562-BCMA: 4.47
JNL binding assay, ratio to K562; NCI-H929: 3.31
JNL binding assay, ratio to K562; RPMI 8226: 6.25
Proliferation, CD3 ratio to no target; K562-BCMA: 7.37
Proliferation, CD3 ratio to no target; KMS11-luc: 8.63
Proliferation, CD3 ratio to no target; NCI-H929: 8.64
Proliferation, CD3 ratio to no target; RPMI 8226: 8.14
Proliferation, CD4 ratio to no target; K562-BCMA: 9.21
Proliferation, CD4 ratio to no target; KMS11-luc: 8.6
Proliferation, CD4 ratio to no target; NCI-H929: 9.86
Proliferation, CD4 ratio to no target; RPMI 8226: 10.1
Proliferation, CD8 ratio to no target; K562-BCMA: 5.66
Proliferation, CD8 ratio to no target; KMS11-luc: 8.74
Proliferation, CD8 ratio to no target; NCI-H929: 7.42
Proliferation, CD8 ratio to no target; RPMI 8226: 6.19
B3: BCMA-4 CAR (139103) (protein)
chain: QVQLVESGGGLVQPGRSLRLSCAASGFTFSNYAMSWVRQAPGKGLGWVSGISRSGENTYYADSVKGRFTISRDNSKNTLYLQMNSLRDEDTAVYYCARSPAHYYGGMDVWGQGTTVTVSSASGGGGSGGRASGGGGSDIVLTQSPGTLSLSPGERATLSCRASQSISSSFLAWYQQKPGQAPRLLIYGASRRATGIPDRFSGSGSGTDFTLTISRLEPEDSAVYYCQQYHSSPSWTFGQGTKLEIKTTTPAPRPPTPAPTIASQPLSLRPEACRPAAGGAVHTRGLDFACDIYIWAPLAGTCGVLLLSLVITLYCKRGRKKLLYIFKQPFMRPVQTTQEEDGCSCRFPEEEEGGCELRVKFSRSADAPAYKQGQNQLYNELNLGRREEYDVLDKRRGRDPEMGGKPRRKNPQEGLYNELQKDKMAEAYSEIGMKGERRRGKGHDGLYQGLSTATKDTYDALHMQALPPR
Cell killing EC50; KMS11-luc: 0.13 not printed

JNL binding assay, ratio to K562; K562-BCMA: 2.34
JNL binding assay, ratio to K562; NCI-H929: 2.34
JNL binding assay, ratio to K562; RPMI 8226: 2.4
Proliferation, CD3 ratio to no target; K562-BCMA: 1.62
Proliferation, CD3 ratio to no target; KMS11-luc: 1.61
Proliferation, CD3 ratio to no target; NCI-H929: 1.72
Proliferation, CD3 ratio to no target; RPMI 8226: 1.73
Proliferation, CD4 ratio to no target; K562-BCMA: 2.19
Proliferation, CD4 ratio to no target; KMS11-luc: 1.9
Proliferation, CD4 ratio to no target; NCI-H929: 2.23
Proliferation, CD4 ratio to no target; RPMI 8226: 2.15
Proliferation, CD8 ratio to no target; K562-BCMA: 0.99
Proliferation, CD8 ratio to no target; KMS11-luc: 1.27
Proliferation, CD8 ratio to no target; NCI-H929: 1.11
Proliferation, CD8 ratio to no target; RPMI 8226: 1.25
B4: BCMA-5 CAR (139104) (protein)
chain: EVQLLETGGGLVQPGGSLRLSCAVSGFALSNHGMSWVRRAPGKGLEWVSGIVYSGSTYYAASVKGRFTISRDNSRNTLYLQMNSLRPEDTAIYYCSAHGGESDVWGQGTTVTVSSASGGGGSGGRASGGGGSEIVLTQSPATLSVSPGESATLSCRASQSVSSNLAWYQQKPGQAPRLLIYGASTRASGIPDRFSGSGSGTDFTLTISSLQAEDVAVYYCQQYGSSLTFGGGTKVEIKTTTPAPRPPTPAPTIASQPLSLRPEACRPAAGGAVHTRGLDFACDIYIWAPLAGTCGVLLLSLVITLYCKRGRKKLLYIFKQPFMRPVQTTQEEDGCSCRFPEEEEGGCELRVKFSRSADAPAYKQGQNQLYNELNLGRREEYDVLDKRRGRDPEMGGKPRRKNPQEGLYNELQKDKMAEAYSEIGMKGERRRGKGHDGLYQGLSTATKDTYDALHMQALPPR
Cell killing EC50; KMS11-luc: 0.21 not printed
